# Measured values reported in the supplement of paper PMC9112550, “Optimization of the antimicrobial peptide Bac7 by deep mutational scanning” (BMC Biology, 2022).
# System: Escherichia coli TOP10
# Test: shrunken log2 fold change of peptide-encoding DNA abundance (4.5 h post-induction vs induction); higher = less antimicrobial activity (less host growth inhibition)
# Conditions: time post-induction: 4.5 h; library: site-saturation at positions 5, 18, 19, 20
# 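Further: peptides expressed intracellularly from a pBAD plasmid library in pooled LB shake-flask culture, induced with 0.3% L-arabinose, DNA abundance read by NGS, three biological replicates, DESeq2 with apeglm shrinkage.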
row,Sequence,shrunken log2 fold change
1,RRIRRRPPRLPRPRPRPPHIPRP,0.655
2,RRIRRRPPRLPRPRPRPPHNPRP,1.21
3,RRIRRRPPRLPRPRPRPPIAPRP,0.385
4,RRIRRRPPRLPRPRPRPPIDPRP,0.144
5,RRIRRRPPRLPRPRPRPPIEPRP,0.339
6,RRIRRRPPRLPRPRPRPPIIPRP,0.164
7,RRIRRRPPRLPRPRPRPPIVPRP,-0.00408
8,RRIRRRPPRLPRPRPRPPKVPRP,0.693
9,RRIRRRPPRLPRPRPRPPKWPRP,0.628
10,RRIRRRPPRLPRPRPRPPKYPRP,-0.14
11,RRIRRRPPRLPRPRPRPPLKPRP,0.302
12,RRIRRRPPRLPRPRPRPPLPPRP,1.06
13,RRIRRRPPRLPRPRPRPPLVPRP,1.23
14,RRIRRRPPRLPRPRPRPPLWPRP,0.883
15,RRIRRRPPRLPRPRPRPPNLPRP,0.593
16,RRIRRRPPRLPRPRPRPPNTPRP,0.884
17,RRIRRRPPRLPRPRPRPPNWPRP,0.581
18,RRIRRRPPRLPRPRPRPPQVPRP,1.33
19,RRIRRRPPRLPRPRPRPPQYPRP,1.12
20,RRIRRRPPRLPRPRPRPPRNPRP,1.28
21,RRIRRRPPRLPRPRPRPPRWPRP,0.986
22,RRIRRRPPRLPRPRPRPPSGPRP,0.682
23,RRIRRRPPRLPRPRPRPPSMPRP,0.426
24,RRIRRRPPRLPRPRPRPPVQPRP,0.366
25,RRIRRRPPRLPRPRPRPPWRPRP,0.757

row,Sequence,shrunken log2 fold change
1,RRIRRRPPRLPRPRPRPQCGPRP,0.317
2,RRIRRRPPRLPRPRPRPQCMPRP,-0.0592
3,RRIRRRPPRLPRPRPRPQDTPRP,-0.321
4,RRIRRRPPRLPRPRPRPQEPPRP,0.0839
5,RRIRRRPPRLPRPRPRPQESPRP,-0.131
6,RRIRRRPPRLPRPRPRPQEYPRP,-0.0725
7,RRIRRRPPRLPRPRPRPQFWPRP,0.172
8,RRIRRRPPRLPRPRPRPQGHPRP,0.071
9,RRIRRRPPRLPRPRPRPQGIPRP,-0.00228
10,RRIRRRPPRLPRPRPRPQIKPRP,-0.155
11,RRIRRRPPRLPRPRPRPQITPRP,0.0752
12,RRIRRRPPRLPRPRPRPQKIPRP,0.0999
13,RRIRRRPPRLPRPRPRPQKWPRP,0.136
14,RRIRRRPPRLPRPRPRPQMFPRP,-0.25
15,RRIRRRPPRLPRPRPRPQMKPRP,-0.0643
16,RRIRRRPPRLPRPRPRPQNLPRP,-0.276
17,RRIRRRPPRLPRPRPRPQNNPRP,0.198
18,RRIRRRPPRLPRPRPRPQNRPRP,0.318
19,RRIRRRPPRLPRPRPRPQPNPRP,0.355
20,RRIRRRPPRLPRPRPRPQPWPRP,0.067
21,RRIRRRPPRLPRPRPRPQQRPRP,0.795
22,RRIRRRPPRLPRPRPRPQREPRP,0.153
23,RRIRRRPPRLPRPRPRPQRGPRP,0.399
24,RRIRRRPPRLPRPRPRPQSDPRP,0.244
25,RRIRRRPPRLPRPRPRPQSNPRP,-0.285

row,Sequence,shrunken log2 fold change
1,RRIRRRPPRLPRPRPRPQTYPRP,-0.0324
2,RRIRRRPPRLPRPRPRPQWIPRP,0.064
3,RRIRRRPPRLPRPRPRPQWRPRP,0.364
4,RRIRRRPPRLPRPRPRPQYFPRP,-0.0475
5,RRIRRRPPRLPRPRPRPRANPRP,0.954
6,RRIRRRPPRLPRPRPRPRCDPRP,0.306
7,RRIRRRPPRLPRPRPRPRCKPRP,0.358
8,RRIRRRPPRLPRPRPRPRCNPRP,-0.223
9,RRIRRRPPRLPRPRPRPRDVPRP,0.328
10,RRIRRRPPRLPRPRPRPRERPRP,1.02
11,RRIRRRPPRLPRPRPRPREWPRP,1.03
12,RRIRRRPPRLPRPRPRPRFAPRP,0.616
13,RRIRRRPPRLPRPRPRPRFIPRP,0.00289
14,RRIRRRPPRLPRPRPRPRGGPRP,0.509
15,RRIRRRPPRLPRPRPRPRHIPRP,0.945
16,RRIRRRPPRLPRPRPRPRHQPRP,0.277
17,RRIRRRPPRLPRPRPRPRIAPRP,0.652
18,RRIRRRPPRLPRPRPRPRIPPRP,0.209
19,RRIRRRPPRLPRPRPRPRKNPRP,0.179
20,RRIRRRPPRLPRPRPRPRNFPRP,0.306
21,RRIRRRPPRLPRPRPRPRNGPRP,0.144
22,RRIRRRPPRLPRPRPRPRNTPRP,0.436
23,RRIRRRPPRLPRPRPRPRPAPRP,1.83
24,RRIRRRPPRLPRPRPRPRQKPRP,0.857
25,RRIRRRPPRLPRPRPRPRQSPRP,0.243
